{"source": "patent KR20200019669A", "about": "(dated 2020)", "binders": {"B1": {"name": "aCD38-b-329 (antibody, human IgG1, V domains shown)", "VH": "QLQLQESGPGLVKPSETLSLTCTVSGGSISSSDYYWGWIRQPPGKGLEWIGSIYYSGSTYYNPSLKSRVTISVDTSKNQFSLKLSSVTAADTAVYYCARGQYSSGWYAYPFDMWGQGTMVTVSS", "VL": "EIVLTQSPGTLSLSPGERATLSCRASQSVRSSYLAWYQQKPGQAPRLLIYGASSRATGIPDRFSGSGSGTDFTLTISRLEPEDFAVYYCQQDGAVFTFGGGTKVEIK", "notes": "Human IgG1 with kappa constant region (P01857, P01834)"}}, "molecular_target": "T1, his 태그가 부착된 재조합 인간 CD38 (recombinant human CD38 extracellular domain, His-tagged) (human, UniProt P28907 43-300, biotinylated in part of the ForteBio assays (EZ-Link sulfo-NHS biotinylation))", "T1 construct": "Bought from Sino Biological; also called rhCD38; rhCD38-his; not shown: histidine tag", "T1 sequence": "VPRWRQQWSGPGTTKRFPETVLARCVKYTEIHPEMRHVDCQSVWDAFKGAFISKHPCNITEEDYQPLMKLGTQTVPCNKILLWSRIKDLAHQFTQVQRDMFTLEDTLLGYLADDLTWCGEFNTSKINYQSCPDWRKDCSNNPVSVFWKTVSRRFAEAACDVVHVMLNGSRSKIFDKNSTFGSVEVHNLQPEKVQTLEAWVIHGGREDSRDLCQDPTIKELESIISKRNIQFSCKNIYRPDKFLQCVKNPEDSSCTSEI", "assay": "affinity on recombinant human CD38 extracellular domain (Octet/Biacore); order of magnitude told in text", "data": [{"binder": "B1", "values": [{"measurement": "Kd", "result": "~1", "unit": "nM"}]}]}
